The chains are these.
B1: CUB6–8 (cubilin 6–8 domain), glycosylated, not treated with PNGaseF (domain or fragment)
chain: CLYDYTDNFGMLSSPNFPNNYPSNWECIYRITVGLNQQIALHFTDFTLEDYFGSQCVDFVEIRDGGYETSPLVGIYCGSVLPPTIISHSNKLWLKFKSDAALTAKGFSAYWDGSSTGCGGNLTTPTGVLTSPNYPMPYYHSSECYWRLEASHGSPFELEFQDFHLEHHPSCSLDYLAVFDGPTTNSRLIDKLCGDTTPAPIRSNKDVVLLKLRTDAGQQGRGFEINFRQRCDNVVIVNKTSGILESINYPNPYDKNQRCNWTIQATTGNTVNYTFLGFDVESYMNCSTDYVELYDGPQWMGRYCGNNMPPPGATTGSQLHVLFHTDGINSGEKGFKMQWFTHG
modifications: N-glycans as made in 293F cells
B2: rat serum albumin (RSA) (natural protein, UniProt P02770 25-608, looked up)
chain: EAHKSEIAHRFKDLGEQHFKGLVLIAFSQYLQKCPYEEHIKLVQEVTDFAKTCVADENAENCDKSIHTLFGDKLCAIPKLRDNYGELADCCAKQEPERNECFLQHKDDNPNLPPFQRPEAEAMCTSFQENPTSFLGHYLHEVARRHPYFYAPELLYYAEKYNEVLTQCCTESDKAACLTPKLDAVKEKALVAAVRQRMKCSSMQRFGERAFKAWAVARMSQRFPNAEFAEITKLATDVTKINKECCHGDLLECADDRAELAKYMCENQATISSKLQACCDKPVLQKSQCLAEIEHDNIPADLPSIAADFVEDKEVCKNYAEAKDVFLGTFLYEYSRRHPDYSVSLLLRLAKKYEATLEKCCAEGDPPACYGTVLAEFQPLVEEPKNLVKTNCELYEKLGEYGFQNAVLVRYTQKAPQVSTPTLVEAARNLGRVGTKCCTLPEAQRLPCVEDYLSAILNRLCVLHEKTPVSEKVTKCCSGSLVERRPCFSALTVDETYVPKEFKAETFTFHSDICTLPDKEKQIKKQTALAELVKHKPKATEDQLKTVMGDFAQFVDKCCKAADKDNCFATEGPNLVARSKEALA
modifications: in MST: Texas Red-X succinimidyl ester or Oregon Green 488-X succinimidyl ester conjugate, dye:protein molar ratio 1:1
notes: serum albumin, rat, UniprotKB P02770; Labelled with dye in MST; also called rat albumin; source: bought: Sigma
B3: PNGaseF-deglycosylated CUB7,8 (domain or fragment, rat, UniProt O70244 1165-1389, looked up)
chain: CGGNLTTPTGVLTSPNYPMPYYHSSECYWRLEASHGSPFELEFQDFHLEHHPSCSLDYLAVFDGPTTNSRLIDKLCGDTTPAPIRSNKDVVLLKLRTDAGQQGRGFEINFRQRCDNVVIVNKTSGILESINYPNPYDKNQRCNWTIQATTGNTVNYTFLGFDVESYMNCSTDYVELYDGPQWMGRYCGNNMPPPGATTGSQLHVLFHTDGINSGEKGFKMQWFTH
modifications: N-glycans removed with PNGaseF
notes: cubilin, rat, CUB7 (1165–1277) and CUB8 (1278–1389) of full length cubilin UniProtKB O70244; also called CUB7,8 after PNGaseF treatment (+); His tagged CUB7,8 domain; not shown: His6, C-terminal, kept
B4: CUB7,8-N1285P, not treated with PNGaseF (domain or fragment, rat, UniProt O70244 1165-1389, looked up)
chain: B3 chain with N121P
modifications: N-glycans as made in 293F cells (N1168, N1303, N1319 by MS, Table 2)
notes: also called CUB7,8 N1285P mutant; source: 293F cells, purified as the other cubilin proteins (Ni-NTA Superflow, gel filtration)

Data set [1] has as its target B2. In words: MST; Monolith NT.115, standard capillaries, 25 °C, 67 mM NaPO4, 150 mM NaCl, 0.05% Tween 20, pH 7.4 + 1 mM CaCl2; albumin labelled with a fluorescent dye (1:1), cubilin domain unlabelled.
The target of data set [2] is Albumin (Rattus norvegicus) (UniProt P02770). The note with it: cited from earlier work.
Data set [3] has as its target RSA 200 mM glucose (RSA200G) (rat) (UniProt P02770). In words: MST; Monolith NT.115, standard capillaries, 25 °C, 67 mM NaPO4, 150 mM NaCl, 0.05% Tween 20, pH 7.4 + 1 mM CaCl2; albumin labelled with a fluorescent dye (1:1), cubilin domain unlabelled.
For data set [4], the target named is RSA 20 mM glucose (RSA20G) (rat) (UniProt P02770). The description is as above.
Data set [5] concerns the target RSA 1 mM methylglyoxal (RSA1MGO) (rat) (UniProt P02770). The data set is described as above.
In data set [6] the target is RSA 500 mM glucose (RSA500G) (rat) (UniProt P02770). The data set is described as above.
For data set [7], the target named is RSA 5 mM methylglyoxal (RSA5MGO) (rat) (UniProt P02770). The data set is described as above.
Data set [8] deals with the molecule itself. Briefly: SEC-MALS; Agilent Infinity II HPLC with Wyatt DAWN HELEOS II and Optilab T-rEX, 25 °C, running buffer with 2% v/v glycerol; cubilin domains not treated with any glycosidase. (SEC sorts molecules by how far they enter the pores of the column.)
In data set [9] the target is B2. Briefly: MST; as a1 but at pH 5.0 (buffer not told); albumin labelled.
Data set [10] concerns the target B2. Briefly: MST; as a1 but at pH 6.0; albumin labelled.
In the next data set the target is T1, human albumin (human, UniProt P02768 25-609, fluorescent dye conjugate for MST (Texas Red-X or Oregon Green 488-X succinimidyl ester)).
T1 construct: albumin, human
T1 sequence (P02768 25-609): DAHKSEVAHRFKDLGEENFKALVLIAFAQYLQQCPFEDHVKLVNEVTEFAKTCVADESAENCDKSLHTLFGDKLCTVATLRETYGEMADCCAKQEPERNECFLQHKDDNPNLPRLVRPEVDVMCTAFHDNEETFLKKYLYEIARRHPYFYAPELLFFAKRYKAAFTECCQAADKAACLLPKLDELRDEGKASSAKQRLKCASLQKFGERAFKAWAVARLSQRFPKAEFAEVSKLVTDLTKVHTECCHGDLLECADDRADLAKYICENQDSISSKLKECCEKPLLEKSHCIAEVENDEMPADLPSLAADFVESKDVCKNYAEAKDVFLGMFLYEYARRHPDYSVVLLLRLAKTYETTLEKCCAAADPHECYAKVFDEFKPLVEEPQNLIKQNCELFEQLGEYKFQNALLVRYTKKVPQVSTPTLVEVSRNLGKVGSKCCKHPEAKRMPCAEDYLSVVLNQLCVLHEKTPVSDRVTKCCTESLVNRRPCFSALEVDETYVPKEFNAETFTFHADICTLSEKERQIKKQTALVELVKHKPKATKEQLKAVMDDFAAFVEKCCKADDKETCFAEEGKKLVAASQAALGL
In words: MST; Monolith NT.115, standard capillaries, 25 °C, 67 mM NaPO4, 150 mM NaCl, 0.05% Tween 20, pH 7.4 + 1 mM CaCl2; albumin labelled with a fluorescent dye (1:1), cubilin domain unlabelled. The note with it: both partners purified.

A further data set deals with T2, bovine albumin (bovine, UniProt P02769 25-607, fluorescent dye conjugate for MST (Texas Red-X or Oregon Green 488-X succinimidyl ester)).
T2 construct: albumin, bovine
T2 sequence (P02769 25-607): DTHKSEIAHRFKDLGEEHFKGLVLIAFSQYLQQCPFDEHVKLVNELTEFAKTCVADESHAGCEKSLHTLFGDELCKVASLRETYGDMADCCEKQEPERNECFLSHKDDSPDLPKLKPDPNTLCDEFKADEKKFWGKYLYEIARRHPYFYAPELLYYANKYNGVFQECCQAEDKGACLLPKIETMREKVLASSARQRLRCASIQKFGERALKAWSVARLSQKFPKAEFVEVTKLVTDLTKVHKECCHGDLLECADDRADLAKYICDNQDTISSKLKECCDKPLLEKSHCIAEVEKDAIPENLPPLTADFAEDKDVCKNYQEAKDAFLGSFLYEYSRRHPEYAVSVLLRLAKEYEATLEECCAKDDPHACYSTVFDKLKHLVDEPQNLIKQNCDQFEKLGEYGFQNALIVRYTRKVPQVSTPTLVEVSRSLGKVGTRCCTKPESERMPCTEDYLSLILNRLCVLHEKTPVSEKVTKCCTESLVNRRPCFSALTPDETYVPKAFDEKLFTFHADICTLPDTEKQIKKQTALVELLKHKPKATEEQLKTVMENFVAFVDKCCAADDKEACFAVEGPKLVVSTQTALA
The data set is described as above. The conditions noted are these: both partners purified.

For a further data set, the target named is T3, rabbit albumin (rabbit, UniProt P49065 25-608, fluorescent dye conjugate for MST (Texas Red-X or Oregon Green 488-X succinimidyl ester)).
T3 construct: albumin, rabbit
T3 sequence (P49065 25-608): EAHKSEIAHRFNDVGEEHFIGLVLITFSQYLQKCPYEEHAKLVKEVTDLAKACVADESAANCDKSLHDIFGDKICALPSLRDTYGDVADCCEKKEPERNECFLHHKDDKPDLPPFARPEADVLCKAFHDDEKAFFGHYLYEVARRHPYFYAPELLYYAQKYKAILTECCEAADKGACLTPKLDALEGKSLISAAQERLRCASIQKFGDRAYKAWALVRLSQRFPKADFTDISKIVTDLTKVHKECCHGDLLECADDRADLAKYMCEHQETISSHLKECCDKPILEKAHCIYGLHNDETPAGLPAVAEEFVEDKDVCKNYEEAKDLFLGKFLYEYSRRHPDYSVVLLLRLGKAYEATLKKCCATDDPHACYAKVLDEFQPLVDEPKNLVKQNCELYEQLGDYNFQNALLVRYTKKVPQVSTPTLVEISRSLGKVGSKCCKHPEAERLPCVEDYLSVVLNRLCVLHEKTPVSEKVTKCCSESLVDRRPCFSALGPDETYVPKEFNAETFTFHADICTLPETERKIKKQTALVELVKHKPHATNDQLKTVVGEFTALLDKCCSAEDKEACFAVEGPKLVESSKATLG
The description is as above. The conditions noted are these: both partners purified.

Data set [11] concerns the molecule itself. In words: SEC-MALS; data not shown; CUB7,8N1285P.

Numbering of substitutions follows the chain as printed. Names and notes keep the numbering of the source. Values joined by “and” are separate entries in the source; they are usually repeats but may differ in a detail not shown here. Equal values may be shown once.

In general, Kd refers to the constant that tells how readily two partners part at equilibrium. Broadly, the stoichiometry N is a count of units in the complex or per binding partner.

In the case of “CUB7,8 (cubilin 7,8 domain), glycosylated, not treated with PNGaseF (from UniProt O70244 1165-1389) (domain or fragment)”, the Kd in the data set with rat serum albumin (RSA) [1] was above 100 µM.

As for Cubilin (from UniProt O70244), in data set [2], the Kd was 0.63 µM.

Turning to “PNGaseF-deglycosylated CUB6–8 (domain or fragment)”, the equilibrium dissociation constant (Kd) in data set [3] is 9.4 µM; in data set [4], 2000 µM; in [5], 28 µM; in data set [6], above 100 µM; in data set [7], above 100 µM; with rat serum albumin (RSA) [1] it was 500 to 1000 µM. Moreover, in the data set with rat serum albumin (RSA) [1] (record 2), the Kd is 0.5 to 1 µM and 1 µM.

As for B1, the Kd in the data set with rat serum albumin (RSA) [1] (both partners purified) was above 100 µM.

In the case of B2, in data set [8], the “stoichiometry N” value turned out to be 2.

Regarding B3, the Kd with rat serum albumin (RSA) [9] is 1400 µM; in the data set with rat serum albumin (RSA) [10], 1700 µM; in data set [3] it was 25.6 µM; in data set [4], 2500 µM; in [5] it was 35 µM; in data set [6], above 100 µM. The Kd is above 100 µM in data set [7]; 0.95 to 1.5 µM with human albumin; above 100 µM with bovine albumin; 0.9 to 1.4 µM in the data set with rabbit albumin; 0.5 to 1.2 µM with rat serum albumin (RSA) [1]; 500 to 1000 µM in the data set with rat serum albumin (RSA) [1] (record 2).

For B4, the “stoichiometry N” value in data set [11] stood at 2.

These data come from paper PMC9485058, “Glycosylation of a key cubilin Asn residue results in reduced binding to albumin” (The Journal of Biological Chemistry, 2022).
